Biological target: recombinant human histone H4 (human) (UniProt P62805)
Test: cell-based or functional assay

aggregation stoichiometry (protein left after removal of the aggregate, SYPRO Ruby) (mol histone H4 per mol N-terminal domain): 2
Substance: Escherichia coli-expressed His-tagged N-terminal domain human PTX3 (18-178 amino acids), wild-type (from UniProt P26022 18-178)

From patent US20150299277A1, “AGENT FOR TREATING OR PREVENTING SYSTEMIC INFLAMMATORY RESPONSE SYNDROME” (THE UNIVERSITY OF TOKYO, priority 2012, published 2015)
